The values below come from patent US20150086555A1.

Common to all, as to conditions: remark: other sources report otherwise
For experiment [1], the target named is T1, recombinant soluble homotrimeric HA of A/Japan/305/57 (H2N2) (Influenza A virus A/Japan/305/1957(H2N2)). As to the kind of experiment: HA microarray, BCC supernatant.
In experiment [2] the target is T2, recombinant soluble homotrimeric HA of A/Netherlands/219/03 (H7N7) (Influenza A virus A/Netherlands/219/03(H7N7)). Kind of experiment: HA microarray, BCC supernatant.
Experiment [3] deals with T3, recombinant soluble homotrimeric HA of A/Solomon Islands/3/06 (H1N1) (Influenza A virus A/Solomon Islands/3/2006(H1N1)). Kind of experiment: HA microarray, BCC supernatant.
Experiment [4] concerns the target T4, recombinant soluble homotrimeric HA of A/Wisconsin/67/05 (H3N2) (Influenza A virus A/Wisconsin/67/2005(H3N2)). Kind of experiment: HA microarray, BCC supernatant.
The target of experiment [5] is T5, recombinant soluble homotrimeric HA of A/chicken/Vietnam/NCVD-016/08 (H5N1) (Influenza A virus A/chicken/Vietnam/NCVD-016/2008(H5N1)). As to the kind of experiment: HA microarray, BCC supernatant.
Experiment [6] addresses T6, recombinant soluble homotrimeric HA of A/duck/Yangzhou/02/05 (H8N4) (Influenza A virus A/duck/Yangzhou/02/2005(H8N4)). Kind of experiment: HA microarray, BCC supernatant.
In experiment [7] the target is T7, recombinant soluble homotrimeric HA of A/northern shoveler/California/HKWF115/07 (H6) (Influenza A virus A/northern shoveler/California/HKWF115/2007(H6N1)). As to the kind of experiment: HA microarray, BCC supernatant.
Experiment [8] concerns the target T8, recombinant soluble homotrimeric HA of A/swine/Ontario/01911-2/99 (H4N6) (Influenza A virus A/Swine/Ontario/01911-2/99 (H4N6)). Kind of experiment: HA microarray, BCC supernatant.
In experiment [9] the target is recombinant homotrimeric HA A/Japan/305/57 H2N2 (Influenza A virus A/Japan/305/1957(H2N2)). As to the kind of experiment: protein microarray, purified IgG, trimeric HA.
In experiment [10] the target is recombinant homotrimeric HA A/Netherlands/219/03 H7N7 (Influenza A virus A/Netherlands/219/03(H7N7)). Kind of experiment: protein microarray, purified IgG, trimeric HA.
The target in experiment [11] is recombinant homotrimeric HA A/Solomon Islands/3/06 H1N1 (Influenza A virus A/Solomon Islands/3/2006(H1N1)). Kind of experiment: protein microarray, purified IgG, trimeric HA.
Experiment [12] has as its target recombinant homotrimeric HA A/South Carolina/1/18 H1N1 (Influenza A virus A/South Carolina/1/18 (H1N1)). Kind of experiment: protein microarray, purified IgG, trimeric HA.
The target in experiment [13] is recombinant homotrimeric HA A/Wisconsin/67/05 H3N2 (Influenza A virus A/Wisconsin/67/2005(H3N2)). As to the kind of experiment: protein microarray, purified IgG, trimeric HA.
Experiment [14] concerns the target recombinant homotrimeric HA A/chicken/Vietnam/NCVD-016/08 H5N1 (Influenza A virus A/chicken/Vietnam/NCVD-016/2008(H5N1)). Kind of experiment: protein microarray, purified IgG, trimeric HA.
The target of experiment [15] is recombinant homotrimeric HA A/duck/Yangzhou/02/05 H8N4 (Influenza A virus A/duck/Yangzhou/02/2005(H8N4)). As to the kind of experiment: protein microarray, purified IgG, trimeric HA.
Experiment [16] addresses recombinant homotrimeric HA A/northern shoveler/California/HKWF115/07 H6N4 (Influenza A virus A/northern shoveler/California/HKWF115/2007(H6N1)). As to the kind of experiment: protein microarray, purified IgG, trimeric HA.
For experiment [17], the target named is recombinant homotrimeric HA A/swine/Ontario/01911-2/99 H4N6 (Influenza A virus A/Swine/Ontario/01911-2/99 (H4N6)). As to the kind of experiment: protein microarray, purified IgG, trimeric HA.
In experiment [18] the target is T9, recombinant soluble homotrimeric HA of A/California/4/09 (H1N1) (Influenza A virus A/California/04/2009(H1N1)). Kind of experiment: trimeric HA microarray, transfection supernatant set 3.
For experiment [19], the target named is recombinant soluble homotrimeric HA of A/Hong Kong/1073/99 (H9N2) (Influenza A virus A/Hong Kong/1073/99 (H9N2)). The description is as above.
Experiment [20] concerns the target T1, recombinant soluble homotrimeric HA of …. The experiment is described as above.
In experiment [21] the target is T2, recombinant soluble homotrimeric HA of …. The experiment is described as above.
In experiment [22] the target is T3, recombinant soluble homotrimeric HA of …. The experiment is described as above.
Experiment [23] addresses recombinant soluble homotrimeric HA of A/South Carolina/1/18 (H1N1) (Influenza A virus A/South Carolina/1/18 (H1N1)). Described as above.
For experiment [24], the target named is T4, recombinant soluble homotrimeric HA of …. The experiment is described as above.
For experiment [25], the target named is T5, recombinant soluble homotrimeric HA of …. Described as above.
Experiment [26] addresses T6, recombinant soluble homotrimeric HA of …. Described as above.
In experiment [27] the target is T7, recombinant soluble homotrimeric HA of …. Described as above.
For experiment [28], the target named is T8, recombinant soluble homotrimeric HA of …. The experiment is described as above.
The target in experiment [29] is recombinant homotrimeric HA A/California/4/09 H1N1 (Influenza A virus A/California/04/2009(H1N1)). Kind of experiment: protein microarray, purified IgG, trimeric HA.
The target in experiment [30] is T9, recombinant soluble homotrimeric HA of …. Kind of experiment: trimeric HA microarray, transfection supernatant set 2.
For experiment [31], the target named is T2, recombinant soluble homotrimeric HA of …. The experiment is described as above.
Experiment [32] addresses T4, recombinant soluble homotrimeric HA of …. The description is as above.
In experiment [33] the target is T5, recombinant soluble homotrimeric HA of …. Described as above.
Experiment [34] has as its target T6, recombinant soluble homotrimeric HA of …. Described as above.

B1: TCN-532 (5262_H18) (antibody, V domains shown)
VH: QVQLQESGPGLVKPSETLSLTCTVSGGSVSSETYYWSWIRQPPGKGLEWIGYIYYIGNTDYRPSLKSRVTISLDTSKNQFSLKLSSVTAADTAVYYCARGAYYDSSGYPAFYIWGQGTMVTVSS
VL: QSVLTQPPSVSGAPGQRVTISCTGSSSNIGSDYDVHWYKQLPGTAPKLLIFGNSNRPSGVPDRFSGSKSGTSASLAITGLQAEDEADYYCQSYDSSLSGFHVFGSGTKVTVL
With B1, the Trimeric HA Binding: RLU was 176 RLU in experiment [1]; 327 RLU in [2]; 327 RLU in [3]; 18000 RLU in experiment [4]; 46 RLU in experiment [5]; 785 RLU in [6]. The Trimeric HA Binding: RLU was determined as 511 RLU in experiment [7]; 119 RLU in [8]; 764 RLU in experiment [9]; 129 RLU in experiment [10]; 571 RLU in experiment [11]; 149 RLU in [12]. The Trimeric HA Binding: RLU in experiment [13] turned out to be 25200 RLU; in [14], 487 RLU; in experiment [15], 176 RLU; in experiment [16], 117 RLU; in experiment [17], 122 RLU; in [18], 23600 RLU. Moreover, the Trimeric HA Binding: RLU was found to be 48 RLU in experiment [19]; 441 RLU in [20]; 42 RLU in experiment [21]; 59 RLU in experiment [22]; 311 RLU in experiment [23]; 9970 RLU in experiment [24]. The Trimeric HA Binding: RLU in experiment [25] was found to be 29 RLU; in [26], 57 RLU; in experiment [27], 78 RLU; in [28], 29 RLU.

B2: TCN-529 (5297_H01) (antibody, V domains shown)
VH: QITLRESGPTLVKPTQTLTLTCTFSGFSLSTNGVNVGWIRQPPGKALEWLALIYWDDDKRYSPSLKRRLTITKDTSKNQVVLTLTNMDPVDTATYYCAHRPDFYGDFEYWGPGTLVTVSS
VL: QSALTQPASVSGSPGQSITISCTGSSSDIGGYNYVSWYQQHPGKAPKLMIYDVNNRPSGVSNRFSGSKSGNTASLTISGLQTDDEADYYCGSYTGSPHYVFGTGTKVTVL
With B2, the Trimeric HA Binding: RLU in experiment [1] was 435 RLU; in experiment [2] it was 1160 RLU; in experiment [4] it was 51600 RLU; in experiment [5] it was 410 RLU; in [7], 533 RLU; in experiment [29], 977 RLU. Also, the Trimeric HA Binding: RLU in [9] stood at 1560 RLU; in [10], 1310 RLU; in experiment [11], 2820 RLU; in experiment [12], 243 RLU; in experiment [13], 25600 RLU; in experiment [14] it was 681 RLU. For the same molecule, the Trimeric HA Binding: RLU is 737 RLU in experiment [15]; 735 RLU in [18]; 45 RLU in experiment [20]; 158 RLU in experiment [23]; 2940 RLU in [24]; 33 RLU in experiment [25]. The Trimeric HA Binding: RLU in experiment [26] came to 48 RLU; in experiment [28], 45 RLU.

B3: TCN-526 (5084_C17) (antibody, V domains shown)
VH: EVLMVESGGGLVQPGGSVRLSCVASGFSFSSHWMTWVRQAPGKGLEWVANIEDDGGDKYYVDSVKGRFIISRDNAKNSVYLQMNSLRAEDTAVYFCARGSGSSDRSDYDPHYYYYLDVWGKGATVTVSS
VL: DIQLTQSPSSLSASVGDRVTITCRASQSISRYLNWYQQKPGKAPKLLLFAASTLLDGVPSRFSGSGSGTDFTLTISSLQPEDFATYYCQRNHSPSWTFGQGTRVEIK
With B3, the Trimeric HA Binding: RLU in experiment [1] worked out at 246 RLU; in experiment [2], 1340 RLU; in experiment [3] it was 341 RLU; in experiment [4], 49300 RLU; in experiment [6] it was 596 RLU; in experiment [29], 620 RLU. Further, the Trimeric HA Binding: RLU in experiment [9] stood at 642 RLU; in experiment [11], 804 RLU; in experiment [12] it was 87 RLU; in experiment [13] it was 26600 RLU; in experiment [30] it was 3600 RLU; in experiment [31] it was 5660 RLU. In addition, the Trimeric HA Binding: RLU worked out at 27800 RLU in experiment [32], 3290 RLU in experiment [33] and 4300 RLU in [34].
